From the supplement of paper PMC12042874
± gives the uncertainty stated by the source.

Assay: amyloid nucleation score (Sup35N fusion, yeast selection) (log enrichment); library NNK3; higher = more nucleation; inactive = no reads after selection
In short: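 DiMSum was used to calculate nucleation scores as log enrichment of output over input reads, centred on the mode score of non-aggregating sequences. Sequences with fewer than 100 input reads were not scored. Input and output came from Illumina sequencing of plasmid inserts in psi-negative yeast expressing peptides of 20 random codons fused to Sup35N, induced 24 hours with 100 μM copper sulfate and then grown 7 days at 30°C on medium lacking adenine and uracil.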
For WSFMYVYVC, the amyloid nucleation score was 1.71 ± 0.06.
In the case of IMSSVVYECFKVLRHSVMSG, the amyloid nucleation score is reported as “inactive”.
For WTYTKVWIWS, the amyloid nucleation score was “inactive”.
In the case of ITMCIIHHRHLMATSFM, the amyloid nucleation score is reported as 0.752 ± 0.18.
In the case of YACRVGVWKRVRVWNSGVSL, the amyloid nucleation score is reported as “inactive”.
With INLHFDITDWANNDLENKGH the amyloid nucleation score was “inactive”.
For DDYYFG, the amyloid nucleation score was “inactive”.
In the case of HRCDAWYYRS, the amyloid nucleation score is reported as “inactive”.
In the case of KATWSCLHLATHSASPCQSA, the amyloid nucleation score is reported as “inactive”.
With FPWFTEASPPEMKLDK the amyloid nucleation score was 0.816 ± 0.23.
For HFVKVE, the amyloid nucleation score was “inactive”.
For ELVGIIDGCLKNMSSFTMRV, the amyloid nucleation score was “inactive”.
With IFHMVVLVLAGKFILVISCS the amyloid nucleation score was “inactive”.
In the case of YPLFECSDAPSQDNDTMLTR, the amyloid nucleation score is reported as “inactive”.
For DYYIAPRVPYHVTTWNKDYL, the amyloid nucleation score was “inactive”.
In the case of RLSHTMCRVLCHWVMSYSVS, the amyloid nucleation score is reported as “inactive”.
With RGMFTFNYMNWGKDLLRPRL the amyloid nucleation score was “inactive”.
In the case of NMRYKHAWNLEVVVLKVHVY, the amyloid nucleation score is reported as “inactive”.
For TRAYVVAIDQYFRGRRRNI, the amyloid nucleation score was “inactive”.
In the case of VTGIIRRIYLLF, the amyloid nucleation score is reported as “inactive”.
For LLQICGVYYYPIVSYSPDDF, the amyloid nucleation score was “inactive”.
ITNVRSVRFLYSSTYYHIVL gave an amyloid nucleation score of 1.83 ± 0.11.
With FFFLLKMRHKPSASANLNSN the amyloid nucleation score was “inactive”.
In the case of SLDFSSGDVKNLKCCNVLMK, the amyloid nucleation score is reported as “inactive”.
For DDLMASTMGSSMG, the amyloid nucleation score was “inactive”.
For YYYLKCFTYCVLLFYYS, the amyloid nucleation score was “inactive”.
With MHLDYGC the amyloid nucleation score was “inactive”.
In the case of IFYFHQFNCMPGLAFTSVIG, the amyloid nucleation score is reported as “inactive”.
In the case of GLDTAR, the amyloid nucleation score is reported as “inactive”.
With QFYTDSFLHIIFSWCGPLDQ the amyloid nucleation score was “inactive”.
For GSGGAMELVRFYYLNVAVCV, the amyloid nucleation score was “inactive”.
With MDSLGW the amyloid nucleation score was “inactive”.
TFCMLCYQNSIFTVYNSEYQ gave an amyloid nucleation score of 3.36 ± 0.064.
With PFCFELSWGYGKNKVATMRY the amyloid nucleation score was “inactive”.
With SPRNMWI the amyloid nucleation score was “inactive”.
For NNLNQRYYTRHLQSGNLFCS, the amyloid nucleation score was “inactive”.
FYYIVIFSNHWPSCILCRGR showed an amyloid nucleation score of 0.792 ± 0.28.
Substance NVECSCDPEKTFIPKSVSLK has an amyloid nucleation score of 0.102 ± 0.63.
With VRVLDWNLMHFFFSYKRFLQ the amyloid nucleation score was -0.094 ± 0.25.
For SLLSIFVKGARLQISDVSQG, the amyloid nucleation score was 0.773 ± 0.18.
In the case of QSYIRKQFRIQSHISFSDNS, the amyloid nucleation score is reported as “inactive”.
With LVFSNFYGYFRASC the amyloid nucleation score was “inactive”.
In the case of NVGWIWPYM, the amyloid nucleation score is reported as “inactive”.
For CGSWAYRY, the amyloid nucleation score was 0.435 ± 0.19.
For SRFKMICSRDRLNNRSVVLG, the amyloid nucleation score was “inactive”.
For KRNRRTISLMTKFIMGKPGY, the amyloid nucleation score was “inactive”.
In the case of FQYKVSFPDRRASQKRWPLP, the amyloid nucleation score is reported as “inactive”.
With MYVPIPVYFQF the amyloid nucleation score was “inactive”.
With PVLSYSVLRYL the amyloid nucleation score was “inactive”.
For ATIIPICSHLIDHSVSLDQG, the amyloid nucleation score was “inactive”.
TSLASNFANVTSVTCY gave an amyloid nucleation score of -0.679 ± 1.
In the case of GKKMKEGCSSNISIVELSRN, the amyloid nucleation score is reported as “inactive”.
With MNVGAIGKSSFMY the amyloid nucleation score was “inactive”.
In the case of IFSYLEEECDPRWRGPLKPL, the amyloid nucleation score is reported as “inactive”.
For TFYVLRPTYSITRNGAPRPL, the amyloid nucleation score was “inactive”.
GDTAPNSSTISLTVFFPLFA gave an amyloid nucleation score of 0.697 ± 0.21.
For PTILWAQYAGWGSKVWPPRL, the amyloid nucleation score was “inactive”.
For QYCSSCLLWCMKSQGLDMTR, the amyloid nucleation score was “inactive”.
In the case of FGLVRTNRDILH, the amyloid nucleation score is reported as “inactive”.
In the case of PQIVFRFDNIDQ, the amyloid nucleation score is reported as “inactive”.
In the case of TIYVLCGRTIRWFVLNPLQE, the amyloid nucleation score is reported as “inactive”.
For QYKSMAGSLWFNSVQEQASK, the amyloid nucleation score was “inactive”.
Substance GFGQATTCLSLNSACF has an amyloid nucleation score of 0.544 ± 0.18.
Substance ANCCYPDLSCYVLYCGSSCL has an amyloid nucleation score of 2.41 ± 0.076.
For DSASLGLNLP, the amyloid nucleation score was “inactive”.
With CWDFKGFMMESLTNRSPYAS the amyloid nucleation score was “inactive”.
In the case of VLKASNFV, the amyloid nucleation score is reported as “inactive”.
In the case of FLGVNNNSVVNLYELCD, the amyloid nucleation score is reported as “inactive”.
In the case of FSLRVGMKVHISKIRLGCCK, the amyloid nucleation score is reported as “inactive”.
With EVPNFYNLPSWSA the amyloid nucleation score was “inactive”.
In the case of LVVTTPLRRGKDLDSMRYTC, the amyloid nucleation score is reported as “inactive”.
With ILVLTKRVCYGSLFRYAWAK the amyloid nucleation score was “inactive”.
In the case of DINCSWTLQNGRGTLSE, the amyloid nucleation score is reported as “inactive”.
For FDMFVLGMGCGILQYLICFK, the amyloid nucleation score was “inactive”.
In the case of MCGDKSV, the amyloid nucleation score is reported as “inactive”.
In the case of IRVSN, the amyloid nucleation score is reported as “inactive”.
In the case of ILYWVYCSYSSNHDLYLFII, the amyloid nucleation score is reported as “inactive”.
For YRWSPWYNYCSSWTWCQMST, the amyloid nucleation score was 1.51 ± 0.13.
For CSYAEKIVKGLAPVFLKVN, the amyloid nucleation score was “inactive”.
For YWLDLYSKCLSSSVEISLGI, the amyloid nucleation score was “inactive”.
